Test results taken from the nanobody polyreactivity screen of Harvey et al. (2022).

Assay: yeast display, Sf9 membrane polyspecificity reagent, FACS + sequencing; frameworks hold sequencing errors
Method in brief: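 After 36–48 hours of galactose induction, yeast (Saccharomyces cerevisiae BJ5465) displaying a synthetic nanobody library were stained at 4 °C for 1 hour with 10% biotinylated, detergent-solubilized Sf9 membrane reagent. Streptavidin microbeads enriched the stained cells before FACS sorting into low and high (top ~1%) gates on anti-HA and streptavidin fluorescence. Each clone's polyreactivity label reflects its gate of origin.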

Sequence	polyreactivity (PSR sort gate)
QVQLVESGGGLVQAGGSLRLSCAASGIFTNNAMGWYRQAPGKERELVAAITIRGGSTYYADSVKGRFTISRDNAKNTVYLQMNSLKPEDTAVYYCAARGLGYTDLRSVHMYYWGQGTQVTVSS	high polyreactivity
QVQLVESGGGLVQAGGSLRLTCAASGRIFVKNAMGWYRQAPGKERELVATICSGGNTNYADSVKGRFTISRDNAKNTVYLQMNSLKPEDTAVYYCAAVWDLGDYELPYDYWGLGTQVTVSS	low polyreactivity
QVQLVESGGGLVQAGGSLRLSCAASGFIFITYDMGWYIQAPGKERELVAVITSGGTTNYADSVKGRFTIARDNAKNTVYLQMNSLKPEDTAVYYCNRDSVLDPGNPNPYGFDYWGQGTQVTVSS	low polyreactivity
QVQLVESGGGLVQAGGSLRLSCAASGLIFPYYAMGWYRQAPGKERELVAAISRSGDSTYYADSVKGRFTISRDNAKITVYLQMNSLKPEDTAFYYCAAVLSYSYVRYNYWGQGTQVNVSS	high polyreactivity
QVQLVESGGGLVQAGGSLRLSCAASGRTFWRYTMGWYRQAPGKERELVAAISTNAGTTYYADSVKGRFTISRDNAKNTVYLQMNSLKPEDTAVYYCAARHPGNGYADPTNYYWGQGTQVTVSS	high polyreactivity
QLQLVESGGGLVQAGGSLRLSCAASVFTLRGYAMGWYRQATCKERELVADISGGGSTDYADSVKVRFTISRDNAKNTVYLQMNSLKPEDTAVYYCAAYGYLWWEMDYWGQGTQVTVSS	high polyreactivity
QVQLGESGGGLVQAGGSLRLSCAASGRIFNVYAMGWYRQAPGKERELVAAISTGSPTYYADSVKGRFTISRDNAKNTVYLQMNSLKPEDTAVYYCATGYIHGDYWSFRHQYYYWGQGTQVTVSS	low polyreactivity
QVQLVESGGGLVQAGGSLRLSCAASGSIFYSNAMGLSRQAPGKEREWVATITSGDSTNYADSVKGRFTISRDNAKNTVYLQMNSLKPEDTAVYYCAADSSLYEWFDWPWERGQSVESWGQGTQVTVSS	low polyreactivity
QVQLVESGGGLDQAGGSLRLSCAASGSIFANNAMGWYRQAPGKERELVATIRSGGTTNYADSVKGRFTISRDNAKNTVYLQMNSLKPEDTAVYYCAAETVSYYSKYDYWGQGTQVTVSS	low polyreactivity
QLQLVESGGGLVQAGGSLRLSSAASGRTFRWNAMGWYRQAPGKERELVAAISSGGSTYYADSVKGRFTISRDNAKNTVYLQMNSLKPEDTAVYYCAKTSFKYRWSYPVISMDYWGQGTQVTVSS	high polyreactivity
QVQLVESGGGLVQAGGSLRLSCAASGRIFSIYAMGWYRQAPGKERDMVAASSFRGTSTYADSVKGRFTISRDNAKNTVYLQMNWLKPEDTAVYYCAVTGFDVLWPSLGGELDYWGQGTQVTVSS	low polyreactivity
QVQLVESGGGLVQAGGSLRLSCAASGSTFDGNAMGWYRQAPGKERELVASITQRASNTYYADSVKGRFTISRDNAKNTVDLQMNSLKPEDTAVYYCARQWYWRPVYYIGQGYEYWGQGTQVTVSS	low polyreactivity
QVQLVESAGGLVQAGGSLRLSCAASGSTFVTYAMGWYRQAPGKERELVAAISSTGTGRTYYADSVKGRFTISRDNAKNTVYLQMNSLKPEDTAVYSCAADATSPLTWFDYWGQGTQVTVSS	low polyreactivity
QVQLVESGGGLVQAGGSLRLSCAASGRTFFGYAMGWYRQAPGKERELVAAISSRGDSTYYADSVKGRFTISRDNAKNTVYLQMNSLKPEDTAVYYCNAPVYTAAGYRYGTVRYGYWGQGTQVTVSS	low polyreactivity
QVQLVESGGGLVQAGGSLRLSCAASGRTFIKYARGWYRPAPGKERELVAAISRNGGSTNYADSVKGRFTISRDNAKNTVYFQMNSLKPEDTAVYYCAAVGTVSRTVGYNYWGQGTQVTVSS	high polyreactivity
QVQLVESGGGLGQAGGSLRLSCAASGFTIIYYAMGWYRQAPGKERELVAAISRRGGRTYYADSVKGRFTISRDNAKNTVYLQMNSLKPEDTAVYYCAADGSGTSISYRYKHDYWGQGTQVTVSS	high polyreactivity

Sequence	polyreactivity (PSR sort gate)
QFQLVESGGGLVQARGSLRLSCAASGRIFSWYAMGWYRQAPGKETELVAGLNRNGGSTYYPDSVKGRFTISRDNAKNTVYLQMNSQKPEDTAVYYCAKGQYYYTGDYDYWGQGTQVTVSS	high polyreactivity
QVQLVESGGGLVQAGGSLRLICAASGRTFYNAMGWYRQAPGKERELVAAISSAGRTYYADSVKGRFTISRDNAKNTVYLQMNSLKPEDTAVYYCAATAFSYYPYHGDYWGQGTQVTVSS	high polyreactivity
QVQLVESGGGLVQAGGSLRLSCAASGRIFPRNTMGWYRQATGKERELVAAISVSGGSTYYADSVKGRVTISRDNAKNTVYLQMNRLKPEDTAVFFCAAAKCYRSGSWYEYWGQGTQVTVSS	high polyreactivity
QVQLVESGGGLVQAGGSLRLSCAASGFTFTTYVMGWSRQAPGKERELVAAISRRGTSTRYADSVKGRFTISRDNAKNTVYLQMNSLIPEDTAVYYCAADRPYSIVPYDYWGQGTQVTVSS	high polyreactivity
QVQLVESGGGLVQAGGSLRLSCAASGSIFSAYAMGWYIQAPGKERELVAGITGSGGRTYYADSVKGRFTISRDNAKNTVYLQMNSLKPEDTAVYYCLARSYYNWYDYWGQGTQVTVSS	high polyreactivity
QVQLVESGGGLVQAGGSLRLSCAAYGSTLAGYAMGWYRQAPGKERELVAAIDWTGGSTTYADSVKGRFTISRDNAKNTVYLQMNSLKPEDTAVYYCNVDLGVNGDYWGQGSQVTVSS	low polyreactivity
QVQLVESGGGLVQAGGSLRLSCAASGIFVSYAMGWYRQAPGKERELVAAISWNGGSTYYADSVKGRFTISRDNAKNTVYLQMNSLKPEDTAVYDCAARAYFSYRGYVTDYDYWGQGTQVTVSS	high polyreactivity
QVQLVESGGGLVQAGGRLRLSCAASGRILYVYLMGWYRQAPGKERELGAAISRRGGGTYYADSVKGRFTISRDNAKNTVYLQMNSLKPEDTAVYYCATDQYYEYDYWGQGTQVTVSS	low polyreactivity
QVQLEESGGGLVQAGGSLRLSCAASGITYYYAMGWYRQAPGKERELVAVITPGVSTNYADSVKGRFTISRDNAKNSVYLHMNSLKPEDTAVYYCATDVQVPCIGRSVYAYEYWGQGTQVTVSS	low polyreactivity
QVQLVESGGGLVQAGGSLRLSCAASGRIFRYYAMGWYRQPPGKERELVAAISSSGGRTYYADSVKGRFTISRDNAKNTVYLQMNSLKPEDTAVYYCAADAPNFGLYRDKDYDYWGQGTQVTVSS	high polyreactivity
QVQLVESGAGLVQAGGSLRISCAASVITFIPYAMGWYRQAPGKERELLASISDGGGTNYADSVKGRFTISRDNAKNTVYLQMNSLKTEDTAVYYCATDASTYAYYGGYYWGHGTQVTVSS	low polyreactivity
QVQLVESGGGLVQAGGSLRLSCADSGSIFYVYAMGWYRQAPGKERELVATISSSAGSTYYADSVKGRFTISRDNAKNTVYLQMNSLKPEDTAVYYCNADSFLSWVYRYVYYGSGYWGQGTQVTVSS	low polyreactivity
QVQLVESGGGLVQAGGSLRLSCAASGSTFLHYAMGWYRQAPGKERELVAAISFSGVRTYYADSVKGRFTISRDNAKNTVYLQLNSLKPEDNAVYYCDADGHHADYDYLGQGTQVTVSS	low polyreactivity
QVQLVESGGGLVQAGGSLRLSCAASGRTFYKNAMGWYRQAPWKERELVAAISYGGGSTYYADSVKGRFTISRDNAKNTVYLQMNSLKPEDTAVYYCATQLPFRKPWHDYWGQGTQVTVSS	high polyreactivity
QVQLVESGGGLVQAGGSLRLSCAASGITFISYAMGWYRQAPGKERELVAVISKSGGRTYYADSVKGRFTISRDNAKNTVYLQMNSLKPEDTAVYYCAATKRYASGMYYWGQGTQVTVSS	high polyreactivity
